Test [1] has as its target PCSK9 (UniProt Q8NBP7). The experiment in a line: cell-based or functional assay.
Test [2] has as its target human GLP-1 receptor (human) (UniProt P43220). Put plainly: cell-based or functional assay.

In patent publication US20200231645A1 one finds LDL-R expression in mouse liver, Percentage of baseline (%), dose of inhibitor 22 nmol/kg, EC50 (pM) 0% HSA and EC50 (pM) 1% HSA data, which are given here for 2 substances.

Chain of human GLP-1 receptor (human) (P43220 24-463): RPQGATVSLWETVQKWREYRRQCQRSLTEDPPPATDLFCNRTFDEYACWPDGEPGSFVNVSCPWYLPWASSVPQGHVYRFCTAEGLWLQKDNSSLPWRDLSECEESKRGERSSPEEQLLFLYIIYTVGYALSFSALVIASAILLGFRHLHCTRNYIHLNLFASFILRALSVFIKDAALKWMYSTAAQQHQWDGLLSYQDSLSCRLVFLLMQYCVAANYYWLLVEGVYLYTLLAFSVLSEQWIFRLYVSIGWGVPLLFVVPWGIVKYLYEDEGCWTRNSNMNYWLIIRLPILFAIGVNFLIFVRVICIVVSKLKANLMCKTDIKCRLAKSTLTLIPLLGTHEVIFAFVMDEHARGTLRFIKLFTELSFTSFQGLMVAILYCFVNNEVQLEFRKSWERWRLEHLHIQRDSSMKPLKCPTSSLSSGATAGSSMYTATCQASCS

For Alirocumab (antibody), in test [1], the LDL-R expression in mouse liver, Percentage of baseline (%), dose of inhibitor 22 nmol/kg is 157%. In the case of Semaglutide (peptide), in test [2], the EC50 (pM) 0% HSA came to 7.3 pM and the EC50 (pM) 1% HSA amounted to 210 pM.
